Columns and labels:
[1] = test system: T1, Nc1ncnc2c1ncn2[C@@H]1O[C@H](COP(=O)(O)OP(=O)(O)OP(=O)(O)O)[C@@H](O)[C@H]1O; assay: coupled pyruvate kinase/lactate dehydrogenase NADH ATPase assay, Hill fit; format: biochemical, Thermus thermophilus; conditions: 10 mM MgCl2, 25 mM Hepes pH 7.8, 25 mM KCl, 0.01% Tween 20, 25 °C, ATP 50 μM to 3 mM, 1 μM ClpB
T1 construct: N-terminal domain removed, starts at residue 141; His6 tag with TEV site (pET28b); expressed in E. coli BL21 (DE3) pLysS; homohexamer
Text: coupled pyruvate kinase/lactate dehydrogenase NADH ATPase assay, Hill fit on ΔN-ClpB (ClpB) | plotted as a function of ATP concentration and fitted to the Hill equation

[2] = target: ClpB hexamer assembled with a single double-labeled S359C-Y646C protomer (PL3 variant) (Thermus thermophilus) (UniProt Q9RA63)
[3] = target: ClpB hexamer assembled with a single double-labeled S236C-S359C protomer (PL1 variant) (Thermus thermophilus) (UniProt Q9RA63)
[4] = target: ClpB hexamer assembled with a single double-labeled S236C-S359C protomer (PL1 variant) (Thermus thermophilus) (UniProt Q9RA63); remark: listed apart in the source

Chain of ClpB hexamer assembled with a single double-labeled S359C-Y646C protomer (PL3 variant) (Thermus thermophilus) (Q9RA63 141-854 S359C/Y646C, chain 1 of 2): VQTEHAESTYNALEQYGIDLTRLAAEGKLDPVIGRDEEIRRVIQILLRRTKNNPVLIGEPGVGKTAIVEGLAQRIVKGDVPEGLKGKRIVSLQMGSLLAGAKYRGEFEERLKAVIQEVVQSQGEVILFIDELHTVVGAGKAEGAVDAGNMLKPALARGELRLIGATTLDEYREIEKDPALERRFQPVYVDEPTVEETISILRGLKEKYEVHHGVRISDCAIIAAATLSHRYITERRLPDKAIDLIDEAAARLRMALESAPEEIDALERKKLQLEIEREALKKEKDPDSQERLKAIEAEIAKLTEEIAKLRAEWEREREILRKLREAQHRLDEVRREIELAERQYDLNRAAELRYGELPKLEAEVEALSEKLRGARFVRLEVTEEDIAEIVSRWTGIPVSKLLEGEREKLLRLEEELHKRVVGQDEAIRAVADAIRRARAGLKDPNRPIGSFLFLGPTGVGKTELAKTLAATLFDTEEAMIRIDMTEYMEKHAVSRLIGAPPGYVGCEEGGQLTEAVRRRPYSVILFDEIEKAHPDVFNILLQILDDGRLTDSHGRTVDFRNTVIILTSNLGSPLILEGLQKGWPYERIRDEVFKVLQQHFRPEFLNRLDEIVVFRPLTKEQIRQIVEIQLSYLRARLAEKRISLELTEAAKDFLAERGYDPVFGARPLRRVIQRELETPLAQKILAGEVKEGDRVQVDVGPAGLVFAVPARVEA
Chain of ClpB hexamer assembled with a single double-labeled S359C-Y646C protomer (PL3 variant) (Thermus thermophilus) (Q9RA63 141-854, stated change not applied, chain 2 of 2): as the sequence (Q9RA63 141-854 S359C/Y646C, chain 1 of 2) above, with C219S, C506Y counted along it
Chain of ClpB hexamer assembled with a single double-labeled S236C-S359C protomer (PL1 variant) (Thermus thermophilus) (Q9RA63 141-854 S236C/S359C, chain 1 of 2): as the sequence (Q9RA63 141-854 S359C/Y646C, chain 1 of 2) above, with S96C, C506Y counted along it
Chain of ClpB hexamer assembled with a single double-labeled S236C-S359C protomer (PL1 variant) (Thermus thermophilus) (Q9RA63 141-854, stated change not applied, chain 2 of 2): as the sequence (Q9RA63 141-854 S359C/Y646C, chain 1 of 2) above, with C219S, C506Y counted along it
Chain of ΔN-ClpB (ClpB) (Thermus thermophilus HB8) (chain, as listed by the source mutant): as the sequence (Q9RA63 141-854 S359C/Y646C, chain 1 of 2) above, with C219S, C506Y counted along it

Substance	K0.5 [1]	smFRET: substrate-response factor R3 (ratio of K12^3 with and without 20 μM κ-casein), with ADP [2]	smFRET: substrate-response factor R3 (ratio of K12^3 with and without 20 μM κ-casein), with ATP [2]	smFRET: substrate-response factor R3 (ratio of K12^3 with and without 20 μM κ-casein), with ATPγS [2]	smFRET with two-state H2MM analysis, 2 mM ATP: population ratio K12^1 of the two PL1 states without and with 20 μM κ-casein [3]	smFRET: substrate-response factor R1 (ratio of K12^1 with and without 20 μM κ-casein), with ATP [4]
ΔN-ClpB (ClpB) (Thermus thermophilus HB8)	300 ± 20 µM					
κ-casein (from UniProt P02668 22-190) (natural protein)		1.71	2.28	1.34	0.81	1.68

Source: article PMC8442866, “Ultrafast pore-loop dynamics in a AAA+ machine point to a Brownian-ratchet mechanism for protein translocation” (Science Advances, 2021)
